Data from the nanobody polyreactivity screen of Harvey et al. (2022).

Assay: yeast display, Sf9 membrane polyspecificity reagent, FACS + sequencing; frameworks hold sequencing errors
Outline: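 A nanobody's polyreactivity label depends on the gate it was sorted from. Yeast display cells were stained with 10% biotinylated, detergent-solubilized Sf9 membrane reagent for 1 hour at 4 °C, enriched on streptavidin microbeads and sorted by FACS. The low and high (top ~1%) gates were set on anti-HA fluorescence for expression and streptavidin fluorescence for reagent binding.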

| Sequence | polyreactivity (PSR sort gate) |
| --- | --- |
| QVQLVESGGGLVQAGGSLRLSCAACGSTFYGHAMGWYRQAPGKRELVAAITWSGGSTYYADSVKGRFTISRDNAKNTVYLQMNSLKPEDTAVYYCAADRRNNNGASGTRLDYWGQGTQVTVSS | low polyreactivity |
| QVQLVESGGGLVQAGGSLRLSCAAPGSIFPRYAMGWYRQAPGKERELVAAISRSGGSTYYADSVKGRFTISRDNAKNTVSLQRNSLKPEDTAVYYCATDKVSHRRYDYWGQGTQVTVSS | high polyreactivity |
| QVQLVESGGGLVQAGGSLRLSCAASAFIFIIYAMGWYRQAPGKERELVAGIRWSGGSTYYADSVKGRFTISRDNAKNTVYLQMNSLKQEDTAVYYCNKDRGSLTLYTYDYWGQGTQVTVSS | low polyreactivity |
| QVQLVESGGGLVQAGGSLRLSCAASAFTFGYYAMGWYIQAPGKERELVAAISSGGNTNYADSVKGRFTISRDNAKNTVYLQMNSLKPEDTAVYYCNRRSWRYYKTYSAFNYWGQGSQVTVSS | high polyreactivity |
| QVQLVESGGGLVQAGGSLRLSCAASAFTFQNYAMGWYRQAPGKERELVAAIDSRGGRTYYADSVKGRFTISRDNAKNTVYLQMNSLKPEDTADDYCAVAENSRFGSVGYYYWGQGTQVTVSS | low polyreactivity |
| QVQLVESGGGLVQAGGSLRLSCAASAGTFNHYAMGWSRQEPGKERELVASITNGASTYYADSVKGRFTISRDNAKNTVYLQMNILKPEDTAVYYCAKRGRVGKYRYEYWGQGTLVTVSS | low polyreactivity |
| QVQLVESGGGLVQAGGSLRLSCAASAIIFRFYAMGWYRQAPGKERELVPAISSGGSTYYADSVKGRFTISRDNAKNTVYLQMNSLKPEDTAVYYCNARVRYKRTGRYGYWGQGTQVTVSS | high polyreactivity |
| QVQLVESGGGLVQAGGSLRLSCAASALTFRVYAMGWYRQAPGKERELVAAISFSGSSTFYADSVKGRFTISRDNAKNTVYLQMNSMKPEDTAVYYCAAGASEAVDVYDYWGQGTQVTVSS | low polyreactivity |
| QVQLVESGGGLVQAGGSLRLSCAASARTFSAYAMGWYRPAPGKERELVARITSVDSTNYADSVKGRFTISRDNAKNTVYLQMNSLKPEDTAVYYCNATFGYPFVDYDDYWGQGTQVTVSS | low polyreactivity |
| QVQLVESGGGLVQAGGSLRLSCAASARTFWAYAMGWYRQATGKEREWVAAITSSGTRTYYADSVKGRFTISRDNAKNTVYLKMNSLKPEDTAGYYCAAERIWLAHAYPTYVANDYWGQGTQVTVSS | high polyreactivity |
| QVQLVESGGGLVQAGGSLRLSCAASASIFAYNAMGWYRQAPGKERELVAAISYSGASTYYADSVKGRFTISRDYAKNTVYLQMNSLKPEDTAVYYCAATSRRRGTKGYWQVWPRFDYWGQGTQVTVSS | high polyreactivity |
| QVQLVESGGGLVQAGGSLRLSCAASASIFYIYAKGSYRQAPGKARELVAVIRNGGRTNYADSVKGRFTISRDNAKNTVYFQMNSLKPEDTAVYYCAARPRHVTRFDYWGQGTQVTVSS | high polyreactivity |
| QVQLVESGGGLVQAGGSLRLSCAASASIYPYAMGWYRQAPGKERELVAAITRSGASTYYADSVKGRFTISRDNAKNTVYLQMNSMKPEDTAVYYCAAYALRGVRYPYRVDFYYWGQGTQVTVSS | high polyreactivity |
| QVQLVESGGGLVQAGGSLRLSCAASASNIIGYAMGWYRQAPGKERELVAAITSGSITNYADSVKGRFTISRDTAKNTVYLQMNSLKPEDTAVYYCNADVNFIDDDYWGQGTQVTVSS | low polyreactivity |
| QVQLVESGGGLVQAGGSLRLSCAASASTFAGYVMGWYRPAPGKERELVAAISVSGGSTDYADSVKGRFTISRDNAKNTVYLQMNSLKPEDTAVYYCAAVYVRNQWWRNYYWGQGTQVTVSS | low polyreactivity |
| QVQLVESGGGLVQAGGSLRLSCAASASTFYLYAMGWYRQAPGKERELVAAISRGGTTYYADSVKGRFTISRDNEKNSVYLQMNSLKPEDTAVYYCNKLRRYSEYNADYGDYWGQGTQVTVSS | high polyreactivity |
| QVQLVESGGGLVQAGGSLRLSCAASASTIIRNAMGWYRQAPGKERELVAAISTSGGRTHYADSVKGRFTISRDNAKNTVYLQMNSLKPEDTAVYYCDTRGKGHYYYWGQGTQVTVSS | high polyreactivity |
| QVQLVESGGGLVQAGGSLRLSCAASDTPSSSMLMGWYRQAPGKERELVAAISGSDGTTYYADSVKVRFTISRDNAKNTVYLQMNSLKPEDTAVYYCAADDRVYSGYIKDDYWGQGTQVTVSS | low polyreactivity |
| QVQLVESGGGLVQAGGSLRLSCAASGAIFDSNAMGWYREAPGTERELVASIDRGGDTNYADSVKGRFTISRDNAKNTVYLQMNSLKPEDTAVYYCAAYYYKWVWIGMDYWGQGTQVTVSS | low polyreactivity |
| QVQLVESGGGLVQAGGSLRLSCAASGAIFELNAMGWYRQAPGKERELVAAIRWRTGRTYYADSVKGRFTISRDNAKNTVYLQMNSLKPEDTAVYYCAAPVRSGVRYTLDYWGQGTQVTVSS | high polyreactivity |
| QVQLVESGGGLVQAGGSLRLSCAASGAIFFSYAMGWYRQAPGKERELVAAIRTNGGTTYYADSVKGRFTISRDNAKNTVYLQMNSLKPEDTAVYYCAALPGGYYDRGEYDYWGQGTQVTVSS | low polyreactivity |
| QVQLVESGGGLVQAGGSLRLSCAASGAMGWYRQAPGKERELVAAITQSGGSTRYADSVKGRFTISRDNAKNTVYLQMNSLKPEDTAVYYCKAEDPREWDPYYQDGFDFWGQGTQVTVSS | low polyreactivity |

| Sequence | polyreactivity (PSR sort gate) |
| --- | --- |
| QVQLVESGGGLVQAGGSLRLSCAASGCIFAHNAMGWYRQAPGKERELVAASTYYADSVKGRFTISRDNAKNTVYLQMNSLKPEDTAVYYCAKRTRFSPGHDYWGQGTQVTVSS | high polyreactivity |
| QVQLVESGGGLVQAGGSLRLSCAASGCIFASYPMGWYRPAPGTERELVAAISRAGSTYYADSVKGRFTISRDNAKNTDYLQMNSLKPEDTAVYYCNADFNWGYNYWGQGTQVTGSS | high polyreactivity |
| QVQLVESGGGLVQAGGSLRLSCAASGCIFVSHAMGWYRQAPGKERELVAAITSGDNTKYADSVKGRFTISRDNAKNTVYLQMNSLKPEDTAVYYCAVTYRYQGAGYYWGQGTQVTVSS | low polyreactivity |
| QVQLVESGGGLVQAGGSLRLSCAASGCIGRRYAMGWYRQAPGKERELVAAITSSGGGTYYADSVKGRFTISRDNAKNTVYFQINILTPEDTAVYYCAARVYGSHFYYRTRPYDYWGQGTQVTVSS | high polyreactivity |
| QVQLVESGGGLVQAGGSLRLSCAASGCTFLYYMGWYRQAPGKERELVSALTFSGGSTYYADSVKGRFTISRDNAKNTVYLQMNSLKPEDTAVDDGAAGWYDWPKYLLSVYTYYLYDYWGQGSQVTVSS | low polyreactivity |
| QVQLVESGGGLVQAGGSLRLSCAASGDTFTSYAMGWYRQAPGKERELVAAISRRGGSTYYADSVKGRFTISRDNAKNTVYLQMNSLKPEDTAVYYCAAKSYSYTEFDYWGQGTQVTVSS | high polyreactivity |
| QVQLVESGGGLVQAGGSLRLSCAASGFAFGVYAMGWDRQAAGKERELVAAITRSGGSTYYADSVKGRFTISRDNAKNTVYLQMNSLKPEDTAVYYCAARARDHYGYWGQGTQVTVSS | high polyreactivity |
| QVQLVESGGGLVQAGGSLRLSCAASGFDGYAMGWYRQAPGKERELVAAISWSGSRTYYADSVKGRFTISRDNAKNTVYLQMNSLKPEDTAVYYCAADDVGRGSTPYDYWGQGTQVTVSW | high polyreactivity |
| QVQLVESGGGLVQAGGSLRLSCAASGFICDYNAMGWYRQAPGKERELVAAISGGGGSTYYADSVKGRFTISRDNAKKTVYLQMNSLKPEDTAVYYCAKRYRGGYWGQGTQVTVSS | high polyreactivity |
| QVQLVESGGGLVQAGGSLRLSCAASGFICGYNAMGWYRQAPGKERELVASINWSGGRTYYADSVKGRFTISRDNAKITVYLQMNSLKPEHTAVYYCNADGSRRYNYWGQGTQVTVSS | low polyreactivity |
| QVQLVESGGGLVQAGGSLRLSCAASGFIFAASALGWSRQAAGKEREFVAAISNSGTSTYYADSVKGRFTISRDNAKNTVYLQMNSLKPEDTAVYYCAAPWSTAYDYWGQGTQVTVSS | high polyreactivity |
| QVQLVESGGGLVQAGGSLRLSCAASGFIFAAYAKGWYRQAPGKERELVAAISGSGGRTYYADSVKGRFTISRDNAKYTVYLQMNSLKPEDTAVYYCGTPPGYPPGSIIWSRFGFWGQGTQVTVSS | high polyreactivity |
| QVQLVESGGGLVQAGGSLRLSCAASGFIFADYTMGWYRQPPGKERELVAAITRSGDSTYYADSVKGRFTISRDNAKNTVYLQMNSLKPEDTAVYYCNAVNDWYYAYYGVTSFRSYDYWGQGTQVTVSS | low polyreactivity |
| QVQLVESGGGLVQAGGSLRLSCAASGFIFAGYAMGWYRQAPGKERELVAAISWDGGSTYYADSVKGRFTISRDNAKNTVYLQMNSLKPEDTAVYYCARARYGKYGYWGQATQVTVSS | low polyreactivity |
| QVQLVESGGGLVQAGGSLRLSCAASGFIFAIYAMGWYRQAPGKERELVAAINSDGSTYYADSVKGRFTISRDNAKNTVYLQMNSLKPEDTAVYYCNAETAGHDMDYWGQGTQVTVSS | low polyreactivity |
| QVQLVESGGGLVQAGGSLRLSCAASGFIFAIYAMGWYRQAPGKERELVAAITSSSSTYADSVKGRFTISRDNAKNTVYLQMNSLKPEDTAVYYCAADTYSYRNSNDYWGQGTQVTVSS | low polyreactivity |
| QVQLVESGGGLVQAGGSLRLSCAASGFIFANNAMGWYRQAPGKEREWVAAITSRGGGTYYADSVKGRFTISRDNAKNTVYLQMNCLKPEDTAVYYCAVRTYRFRHWPKYDYWGQGNQVTVSS | high polyreactivity |
| QVQLVESGGGLVQAGGSLRLSCAASGFIFANYAMGWYRQAPGKERELVAAISSGRITYYADSVKGRFTISRDNAKNTVYLQMNSLKPEDTAVYYCAADVLYQDRSGEYHHWDGDYWGQGTQVTVSS | low polyreactivity |
| QVQLVESGGGLVQAGGSLRLSCAASGFIFAPNAMGWYRQAPGKERELVAAISHSGASTFYADSVKGRFTISRDNAKNTVYLQMNILKPEDTAVYYCAADLYIYYVWIRDYWGHGTQVTVSS | low polyreactivity |
| QVQLVESGGGLVQAGGSLRLSCAASGFIFAPNAMGWYRQAPGKERELVAAISHSGASTFYADSVKGRFTISRDYAKNTVYLQMNSLKPEDTAVYYCGAPPYYSYDYWRQGTQVTVSS | low polyreactivity |
| QVQLVESGGGLVQAGGSLRLSCAASGFIFARYAMGWYRQAPGKVRELVARITTGDSTYYADSVKGRFTISRDNAKNTVYLQMNSLKPEDTAVYYCAADDNVSVVGLYYWGQGTQVTVSS | low polyreactivity |
